For experiment [1], the target named is T1, Tim-4 on CHO or HEK293 transfectants (Tim-4-pDisplay construct, N-terminal HA tag, Tim-4 signal sequence … (mouse, UniProt Q6U7R4 30-343)).
T1 construct: also called Tim-4 transfectants; CHO-Tim-4; not shown: N-terminal HA tag of the pDisplay vector
T1 sequence: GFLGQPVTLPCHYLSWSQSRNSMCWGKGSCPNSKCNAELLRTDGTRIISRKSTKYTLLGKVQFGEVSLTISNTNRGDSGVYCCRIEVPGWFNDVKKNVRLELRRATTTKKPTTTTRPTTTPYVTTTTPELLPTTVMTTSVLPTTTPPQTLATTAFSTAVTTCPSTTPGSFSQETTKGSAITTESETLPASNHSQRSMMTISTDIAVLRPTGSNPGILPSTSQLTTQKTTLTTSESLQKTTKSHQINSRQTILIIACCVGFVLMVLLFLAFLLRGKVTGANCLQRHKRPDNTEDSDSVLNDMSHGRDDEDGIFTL
The experiment in a line: flow cytometry, cell surface staining of CHO transfectants. On the technique in general: Flow cytometry measures light scatter and fluorescence of single cells or particles in a stream.

The target in experiment [2] is T2, Tim-3 on CHO-Tim-3 transfectants (UniProt Q8VIM0 20-281, limits assumed).
T2 construct: whole, on cells
T2 sequence (Q8VIM0 20-281 limits assumed): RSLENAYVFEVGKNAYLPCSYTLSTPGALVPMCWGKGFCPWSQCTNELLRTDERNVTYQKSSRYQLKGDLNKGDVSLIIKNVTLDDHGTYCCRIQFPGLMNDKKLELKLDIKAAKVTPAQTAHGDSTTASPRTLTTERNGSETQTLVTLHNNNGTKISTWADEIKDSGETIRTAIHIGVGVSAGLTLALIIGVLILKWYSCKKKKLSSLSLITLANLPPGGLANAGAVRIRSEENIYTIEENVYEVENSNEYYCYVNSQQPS
The experiment is described as above.

For experiment [3], the target named is T3, Tim-2 on CHO-Tim-2 transfectants (mouse, UniProt Q8R183 22-305).
T3 sequence: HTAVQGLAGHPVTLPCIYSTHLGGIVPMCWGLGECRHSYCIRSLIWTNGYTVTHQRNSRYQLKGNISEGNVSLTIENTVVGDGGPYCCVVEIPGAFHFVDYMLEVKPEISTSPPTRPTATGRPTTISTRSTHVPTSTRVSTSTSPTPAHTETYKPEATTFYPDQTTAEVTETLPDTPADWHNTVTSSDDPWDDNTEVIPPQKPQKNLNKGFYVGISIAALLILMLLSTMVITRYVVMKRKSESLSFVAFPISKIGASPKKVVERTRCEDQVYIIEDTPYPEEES
The description is as above.

In experiment [4] the target is T4, Tim-1 on CHO-Tim-1 transfectants (CHO-K1 cells transfected with pEF6 containing murine Tim-1 cDNA) (murine, UniProt Q5QNS5 22-305).
T4 sequence: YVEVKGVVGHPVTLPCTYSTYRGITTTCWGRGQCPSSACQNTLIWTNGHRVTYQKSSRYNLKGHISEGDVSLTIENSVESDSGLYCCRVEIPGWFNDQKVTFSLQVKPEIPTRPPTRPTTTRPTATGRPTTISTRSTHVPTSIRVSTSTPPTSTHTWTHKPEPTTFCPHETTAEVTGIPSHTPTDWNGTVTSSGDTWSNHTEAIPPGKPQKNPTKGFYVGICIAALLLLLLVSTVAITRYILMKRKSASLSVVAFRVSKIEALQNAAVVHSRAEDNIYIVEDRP
Described as above.

Experiment [5] concerns the target T1, Tim-4 on CHO or HEK293 transfectants …. The experiment in a line: flow cytometry, cell surface staining of CHO transfectants (FIG. 14A).

B1: Tim-4-Ig (soluble Ig fusion polypeptide: extracellular IgV and mucin domains of Tim-4 fused to a human IgG1 Fc tail) (Fc fusion)
chain: FLGQPVTLPCHYLSWSQSRNSMCWGKGSCPNSKCNAELLRTDGTRIISRKSTKYTLLGKVQFGEVSLTISNTNRGDSGVYCCRIEVPGWFNDVKKNVRLELRRATTTKKPTTTTRPTTTPYVTTTTPELLPTTVMTTSVLPTTTPPQTLATTAFSTAVTTCPSTTPGSFSQETTKGSAITTESETLPASNHSQRSMMTISTDIAVLRPTGSNPGILPSTSQLTTQKTTLTTSESLQKTTKSHQINSRQTIL
notes: Made by Chimerigen; also called tim-4:Ig fusion; not shown: human IgG1 Fc tail
For B1, the binding result in experiment [1], in experiment [2] and in experiment [3] was “no binding” throughout.

B2: Tim-1-Ig, full-length (Tim-1 extracellular IgV and mucin domains fused to human IgG1 Fc tail) (Fc fusion)
chain: YVEVKGVVGHPVTLPCTYSTYRGITTTCWGRGQCPSSACQNTLIWTNGHRVTYQKSSRYNLKGHISEGDVSLTIENSVESDSGLYCCRVEIPGWFNDQKVTFSLQVKPEIPTRPPTRPTTTRPTATGRPTTISTRSTHVPTSIRVSTSTPPTSTHTWTHKPEPTTFCPHETTAEVTGIPSHTPTDWNGTVTSSGDTWSNHTEAIPPGKPQKNPTKG
notes: Only the extracellular IgV and mucin part stood in the assay; also called Tim1/Fc; full-length Tim-1-Ig; not shown: human IgG1 Fc tail
B2: the binding result is recorded as “no binding” in experiment [4], “no binding” in experiment [2], “no binding” in experiment [3] and “binds” in experiment [5].

B3: Tim-1-Ig containing only the Tim-1 IgV domain (Fc fusion)
chain: SYVEVKGVVGHPVTLPCTYSTYRGITTTCWGRGQCPSSACQNTLIWTNGHRVTYQKSSRYNLKGHISEGDVSLTIENSVESDSGLYCCRVEIPGWFNDQKVTFSLQVKP
notes: also called Tim-1-Ig (IgV only); Tim-1-Ig fusion polypeptide (containing only the Tim-1 IgV domain); not shown: Ig Fc tail
B3: the binding result in experiment [5] is reported as “binds”.

B4: Tim-2-Ig (Tim-2 extracellular IgV and mucin domains fused to human IgG1 Fc tail) (Fc fusion)
chain: HTAVQGLAGHPVTLPCIYSTHLGGIVPMCWGLGECRHSYCIRSLIWTNGYTVTHQRNSRYQLKGNISEGNVSLTIENTVVGDGGPYCCVVEIPGAFHFVDYMLEVKPEISTSPPTRPTATGRPTTISTRSTHVPTSTRVSTSTSPTPAHTETYKPEATTFYPDQTTAEVTETLPDTPADWHNTVTSSDDPWDDNTEVIPPQKPQKNLNKG
notes: Only the extracellular IgV and mucin part stood in the assay; also called Tim2/Fc; not shown: human IgG1 Fc tail
On to B4, for which the binding result in experiment [1], in experiment [4], in experiment [2] and in experiment [3] was “no binding” in each case.
